According to patent US10562947B2, “Compositions and methods for preventing or treating diseases, conditions or processes characterized by aberrant fibroblast proliferation and extracellular matrix deposition” (MOERAE MATRIX, INC., priority 2011, dated 2020):

Experiments:
Assay in all cases: Kinase Profiling Assay
Assay type in all cases: biochemical
Settings in all cases: 100 μM peptide
[1] = biological target: T1, ULK2(h) (Homo sapiens, UniProt Q8IYT8)
T1 sequence (Q8IYT8 1-1036): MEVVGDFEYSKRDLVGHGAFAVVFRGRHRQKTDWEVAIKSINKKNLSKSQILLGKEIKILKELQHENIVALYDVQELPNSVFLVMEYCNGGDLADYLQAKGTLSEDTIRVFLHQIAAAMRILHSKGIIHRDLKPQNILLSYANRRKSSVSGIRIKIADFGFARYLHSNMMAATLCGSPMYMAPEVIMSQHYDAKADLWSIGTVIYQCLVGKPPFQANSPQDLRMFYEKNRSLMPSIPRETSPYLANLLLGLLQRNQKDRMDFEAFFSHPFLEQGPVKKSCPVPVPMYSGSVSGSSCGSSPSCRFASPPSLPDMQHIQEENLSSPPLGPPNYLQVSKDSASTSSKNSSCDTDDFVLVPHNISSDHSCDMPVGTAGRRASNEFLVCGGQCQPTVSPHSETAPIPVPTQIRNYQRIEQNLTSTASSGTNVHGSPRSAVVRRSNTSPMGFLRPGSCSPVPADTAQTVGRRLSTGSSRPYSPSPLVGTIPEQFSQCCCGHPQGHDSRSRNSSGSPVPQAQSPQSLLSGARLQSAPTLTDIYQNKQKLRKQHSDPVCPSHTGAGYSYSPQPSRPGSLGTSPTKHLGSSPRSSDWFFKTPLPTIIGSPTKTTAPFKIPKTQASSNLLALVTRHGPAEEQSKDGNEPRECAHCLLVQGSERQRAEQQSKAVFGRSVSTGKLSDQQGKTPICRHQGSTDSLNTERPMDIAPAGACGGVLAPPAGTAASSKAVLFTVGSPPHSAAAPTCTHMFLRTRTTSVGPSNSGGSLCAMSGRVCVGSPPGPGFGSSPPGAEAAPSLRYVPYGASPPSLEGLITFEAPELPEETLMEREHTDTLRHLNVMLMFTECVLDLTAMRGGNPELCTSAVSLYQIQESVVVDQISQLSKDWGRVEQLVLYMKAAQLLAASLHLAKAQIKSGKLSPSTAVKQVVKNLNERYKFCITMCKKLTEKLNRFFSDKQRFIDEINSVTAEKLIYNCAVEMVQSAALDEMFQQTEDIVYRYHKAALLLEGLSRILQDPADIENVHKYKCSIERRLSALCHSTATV
In short: (§1)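 All 266 human kinases of a profiling service were assayed in duplicate to establish whether MK2 inhibitory peptides act specifically.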

[2] = biological target: Pim-3(h) (Homo sapiens, UniProt Q86V86)
In short: as §1

[3] = biological target: Flt3(D835Y)(h) (Homo sapiens, UniProt P36888, D835Y)
In short: as §1

[4] = biological target: T2, PKCϵ(h) (Homo sapiens, UniProt Q02156)
T2 sequence (Q02156 1-737): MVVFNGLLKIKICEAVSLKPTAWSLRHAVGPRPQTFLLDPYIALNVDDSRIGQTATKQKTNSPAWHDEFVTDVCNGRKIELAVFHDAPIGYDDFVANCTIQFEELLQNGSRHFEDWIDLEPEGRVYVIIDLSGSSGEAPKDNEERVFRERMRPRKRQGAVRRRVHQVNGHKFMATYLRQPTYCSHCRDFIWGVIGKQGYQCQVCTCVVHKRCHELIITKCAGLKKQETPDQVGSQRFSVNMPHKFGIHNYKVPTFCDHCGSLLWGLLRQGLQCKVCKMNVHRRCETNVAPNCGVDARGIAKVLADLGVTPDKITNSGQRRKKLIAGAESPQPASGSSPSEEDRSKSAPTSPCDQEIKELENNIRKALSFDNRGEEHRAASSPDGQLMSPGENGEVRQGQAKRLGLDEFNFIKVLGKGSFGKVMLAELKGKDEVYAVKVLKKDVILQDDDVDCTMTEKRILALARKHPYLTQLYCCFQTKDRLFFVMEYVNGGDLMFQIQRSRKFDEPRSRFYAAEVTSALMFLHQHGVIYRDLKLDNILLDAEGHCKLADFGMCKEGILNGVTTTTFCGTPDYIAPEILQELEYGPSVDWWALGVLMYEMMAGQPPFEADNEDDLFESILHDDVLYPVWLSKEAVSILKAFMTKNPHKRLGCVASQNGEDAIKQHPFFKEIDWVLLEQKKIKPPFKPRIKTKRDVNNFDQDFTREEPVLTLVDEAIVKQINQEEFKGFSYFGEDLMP
In short: as §1

[5] = biological target: T3, Rse(h) (Homo sapiens, UniProt Q06418)
T3 construct: purchased Millipore (IC50 Profiler Express service)
T3 sequence (Q06418 41-890): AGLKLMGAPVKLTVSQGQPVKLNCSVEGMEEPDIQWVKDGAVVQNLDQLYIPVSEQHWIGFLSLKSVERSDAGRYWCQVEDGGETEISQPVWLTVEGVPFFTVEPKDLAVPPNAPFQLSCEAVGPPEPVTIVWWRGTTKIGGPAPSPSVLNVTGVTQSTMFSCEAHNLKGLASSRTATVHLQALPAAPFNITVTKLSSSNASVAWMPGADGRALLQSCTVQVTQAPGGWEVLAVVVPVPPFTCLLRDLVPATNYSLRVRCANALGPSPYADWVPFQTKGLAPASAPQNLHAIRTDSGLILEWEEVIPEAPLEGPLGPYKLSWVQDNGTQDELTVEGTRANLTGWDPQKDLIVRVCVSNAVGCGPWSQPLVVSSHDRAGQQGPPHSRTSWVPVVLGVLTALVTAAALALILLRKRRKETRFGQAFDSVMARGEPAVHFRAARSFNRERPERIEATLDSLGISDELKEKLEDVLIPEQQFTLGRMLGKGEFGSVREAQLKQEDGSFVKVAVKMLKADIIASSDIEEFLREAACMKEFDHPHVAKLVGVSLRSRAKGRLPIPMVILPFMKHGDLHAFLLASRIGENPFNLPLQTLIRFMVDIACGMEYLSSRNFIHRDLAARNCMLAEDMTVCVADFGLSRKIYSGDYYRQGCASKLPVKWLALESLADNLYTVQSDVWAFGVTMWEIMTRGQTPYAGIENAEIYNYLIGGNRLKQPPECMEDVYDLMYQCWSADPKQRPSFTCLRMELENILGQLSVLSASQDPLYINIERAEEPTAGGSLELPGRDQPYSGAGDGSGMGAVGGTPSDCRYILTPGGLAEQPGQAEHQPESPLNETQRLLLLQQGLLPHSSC
In short: as §1

[6] = biological target: Rsk3(h) (Homo sapiens, UniProt Q15349)
In short: as §1

Chain of Rsk3(h) (Q15349 whole entry): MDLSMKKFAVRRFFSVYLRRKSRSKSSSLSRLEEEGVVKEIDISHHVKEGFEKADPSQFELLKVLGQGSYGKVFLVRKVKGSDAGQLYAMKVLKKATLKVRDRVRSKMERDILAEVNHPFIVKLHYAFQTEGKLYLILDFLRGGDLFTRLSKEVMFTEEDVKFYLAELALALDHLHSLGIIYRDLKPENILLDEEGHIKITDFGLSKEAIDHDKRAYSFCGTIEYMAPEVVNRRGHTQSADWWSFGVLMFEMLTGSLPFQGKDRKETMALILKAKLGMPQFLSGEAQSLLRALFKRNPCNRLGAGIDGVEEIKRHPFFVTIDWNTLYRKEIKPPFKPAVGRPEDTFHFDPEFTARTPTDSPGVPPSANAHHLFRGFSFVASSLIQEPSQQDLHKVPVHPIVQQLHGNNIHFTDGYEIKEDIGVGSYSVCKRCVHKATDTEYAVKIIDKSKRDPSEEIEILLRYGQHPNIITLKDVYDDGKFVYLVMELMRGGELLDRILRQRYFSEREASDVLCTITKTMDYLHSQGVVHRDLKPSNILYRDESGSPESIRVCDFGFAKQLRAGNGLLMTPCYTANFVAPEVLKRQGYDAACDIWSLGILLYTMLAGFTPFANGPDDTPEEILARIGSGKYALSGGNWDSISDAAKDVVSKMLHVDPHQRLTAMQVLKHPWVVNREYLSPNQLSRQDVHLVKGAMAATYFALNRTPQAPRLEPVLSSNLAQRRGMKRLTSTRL

Row | Sequence | ULK2(h) % activity [1] [%] | Pim-3(h) % activity [2] [%] | Flt3(D835Y)(h) % activity [3] [%] | PKCϵ(h) % activity [4] [%] | Rse(h) % activity [5] [%] | Rsk3(h) % activity [6] [%]
1 | HRRIKAWLKKIKALARQLGVAA (Mammalian) [MMI-0500] | 124 | 37 | 65 | 23 | 63 | 23
2 | KAFAKLAARLYRKALARQLGVAA [MMI-0400] | 131 | 80 | 71 | 59 | 89 | 71
3 | FAKLAARLYRKALARQLGVAA [MMI-0300] | 122 | 80 | 80 | 79 | 88 | 76
4 | YARAAARQARAKALNRQLGVA (Mammalian) [MMI-0200] | 132 | 94 | – | 98 | 88 | –
